PMC10053881 (Pharmaceutics, 2023)
Bridge positions count the residues as written; N and C are the ends. Square brackets hold non-standard residues; d marks the D form. Peptide text beside a SMILES is read from it. * marks the point of attachment. DOTA = O=C(O)CN1CCN(CC(=O)O)CCN(CC(=O)*)CCN(CC(=O)O)CC1; dPhe(4-NHCONH2) = NC(=O)Nc1ccc(C[C@@H](N)C(=O)O)cc1; Phe(4-Cl) = N[C@@H](Cc1ccc(Cl)cc1)C(=O)O

Assay: Biodistribution in SCID mice bearing twin HEK293-SST2R and wtHEK293 tumors
Conditions: male, mouse, iv, total radioactivity, mean ± sd, n = 4; for tissue uptake at 24 h: 24 h pi; for tissue uptake at 48 h: 48 h pi; for tissue uptake at 4 h: 4 h pi
Procedure: Freshly harvested HEK293-SST2R cells (1.2 × 10^7cells) and wtHEK293 cells (0.6 × 10^7 cells) were suspended in physiological saline (150 μL) and inoculated in the right and left flanks, respectively, of 43 male SCID mice (23.1 ± 1.6 g body weight, six weeks of age on arrival day; NCSR “Demokritos” Animal House, Athens, Greece). Mice were kept under aseptic conditions for 12–15 days and until palpable tumors (300–600 mg) were grown at the inoculation sites. […] Animals were euthanized at 4 and 24 h pi and immediately dissected. Blood samples, organs of interest and tumors were rapidly collected, weighed and counted in the gamma counter. […] Animals were euthanized at 4, 24 and 48 h pi and the procedure described above was followed. Biodistribution data were calculated with the aid of suitable standards of the administered dose as percent of the injected activity per gram tissue (%IA/g) with excel software (Microsoft Corporation, Redmond, Washington, […], USA). Results were provided as average ± sd values, n = 4 per time point, via the PRISM^TM 6.0 GraphPad software (San Diego, CA, USA). Statistical analysis was performed as previously described.

[1] = blood, 40 pmol, Blood uptake, Lu-177 radioligands, iv 40 pmol
[2] = femur, 40 pmol, Femur uptake, Lu-177 radioligands, iv 40 pmol
[3] = in vivo, 40 pmol, Tu+ (HEK293-SST2R tumor) uptake, Lu-177 radioligands, iv 40 pmol
[4] = in vivo, 40 pmol, Tu- (wtHEK293 tumor) uptake, Lu-177 radioligands, iv 40 pmol
[5] = intestines, 40 pmol, Intestines uptake, Lu-177 radioligands, iv 40 pmol
[6] = kidneys, 40 pmol, Kidneys uptake, Lu-177 radioligands, iv 40 pmol
[7] = liver, 40 pmol, Liver uptake, Lu-177 radioligands, iv 40 pmol
[8] = lungs, 40 pmol, Lungs uptake, Lu-177 radioligands, iv 40 pmol
[9] = muscle, 40 pmol, Muscle uptake, Lu-177 radioligands, iv 40 pmol
[10] = pancreas, 40 pmol, Pancreas uptake, Lu-177 radioligands, iv 40 pmol
[11] = spleen, 40 pmol, Spleen uptake, Lu-177 radioligands, iv 40 pmol
[12] = stomach, 40 pmol, Stomach uptake, Lu-177 radioligands, iv 40 pmol
[13] = in vivo, Tu+ (HEK293-SST2R tumor) uptake, In-111 radioligands, iv 20–25 pmol
[14] = kidneys, Kidneys uptake, In-111 radioligands, iv 20–25 pmol
[15] = liver, Liver uptake, In-111 radioligands, iv 20–25 pmol
[16] = lungs, Lungs uptake, In-111 radioligands, iv 20–25 pmol
[17] = muscle, Muscle uptake, In-111 radioligands, iv 20–25 pmol
[18] = pancreas, Pancreas uptake, In-111 radioligands, iv 20–25 pmol
[19] = spleen, Spleen uptake, In-111 radioligands, iv 20–25 pmol
[20] = stomach, Stomach uptake, In-111 radioligands, iv 20–25 pmol

In the case of `C[C@@H](O)[C@@H]1NC(=O)[C@H](CCCCN)NC(=O)[C@@H](Cc2ccc(NC(N)=O)cc2)NC(=O)[C@H](Cc2ccc(O)cc2)NC(=O)[C@H](NC(=O)[C@H](Cc2ccc(Cl)cc2)NC(=O)CN2CCN(CC(=O)O)CCN(CC(=O)O)CCN(CC(=O)O)CC2)CSSC[C@@H](C(=O)N[C@H](Cc2ccc(O)cc2)C(N)=O)NC1=O` [[^177Lu]Lu-DOTA-LM3, metal not drawn] ({DOTA}-[Phe(4-Cl)][dC]Y[dPhe(4-NHCONH2)]KTC[dY]-NH2; disulfide 2-7), the tissue uptake at 24 h [1] is reported as 0.07 %ID/g, the tissue uptake at 48 h [1] is reported as 0.06 ± 0.01 %ID/g and the tissue uptake at 4 h [2] is reported as 1.56 ± 0.24 %ID/g. It also gave a tissue uptake at 24 h [2] of 1.38 ± 0.18 %ID/g, a tissue uptake at 48 h [2] of 0.88 ± 0.05 %ID/g and a tissue uptake at 48 h (heart, 40 pmol, Heart uptake, Lu-177 radioligands, iv 40 pmol) of 0.13 ± 0.02 %ID/g. The tissue uptake at 4 h [3] was 45.5 ± 1.66 %ID/g, the tissue uptake at 24 h [3] was 37.6 ± 3.42 %ID/g and the tissue uptake at 48 h [3] was 18.8 ± 0.88 %ID/g. The tissue uptake at 4 h [4] was 1.66 ± 0.14 %ID/g, the tissue uptake at 24 h [4] was 1.53 ± 0.15 %ID/g and the tissue uptake at 48 h [4] was 0.75 ± 0.08 %ID/g. The tissue uptake at 4 h [5] was 2.71 ± 0.18 %ID/g, the tissue uptake at 24 h [5] was 1.52 ± 0.21 %ID/g and the tissue uptake at 48 h [5] was 0.78 ± 0.09 %ID/g. It also gave a tissue uptake at 4 h [6] of 11.5 ± 0.26 %ID/g, a tissue uptake at 24 h [6] of 5.14 ± 0.92 %ID/g and a tissue uptake at 48 h [6] of 2.47 ± 0.67 %ID/g. It also gave a tissue uptake at 4 h [7] of 6.79 ± 0.84 %ID/g, a tissue uptake at 24 h [7] of 3.38 ± 0.89 %ID/g and a tissue uptake at 48 h [7] of 1.47 ± 0.05 %ID/g. It also gave a tissue uptake at 4 h [8] of 15.7 ± 1.2 %ID/g, a tissue uptake at 24 h [8] of 8.88 ± 0.26 %ID/g and a tissue uptake at 48 h [8] of 5.11 ± 0.63 %ID/g. The tissue uptake at 4 h [9] was 0.07 ± 0.01 %ID/g, the tissue uptake at 24 h [9] was 0.05 ± 0.01 %ID/g and the tissue uptake at 48 h [9] was 0.05 %ID/g. It also gave a tissue uptake at 4 h [10] of 46.6 ± 2.2 %ID/g, a tissue uptake at 24 h [10] of 23 ± 4.32 %ID/g and a tissue uptake at 48 h [10] of 7.85 ± 0.94 %ID/g. For the same compound, the tissue uptake at 4 h [11] was 0.81 ± 0.06 %ID/g, the tissue uptake at 24 h [11] was 0.56 ± 0.07 %ID/g and the tissue uptake at 48 h [11] was 0.4 ± 0.03 %ID/g. It also gave a tissue uptake at 4 h [12] of 14.6 ± 1.85 %ID/g, a tissue uptake at 24 h [12] of 8.03 ± 1.43 %ID/g and a tissue uptake at 48 h [12] of 3.27 ± 0.34 %ID/g.

In the case of `C[C@@H](O)[C@@H]1NC(=O)[C@H](CCCCN)NC(=O)[C@@H](Cc2ccc(NC(N)=O)cc2)NC(=O)[C@H](Cc2ccc(O)cc2)NC(=O)[C@H](NC(=O)[C@H](Cc2ccc(Cl)cc2)NC(=O)CN2CCN(CC(=O)O)CCN(CC(=O)O)CCN(CC(=O)O)CC2)CSSC[C@@H](C(=O)N[C@H](Cc2ccc(O)cc2)C(N)=O)NC1=O` [[^111In]In-DOTA-LM3, metal not drawn] ({DOTA}-[Phe(4-Cl)][dC]Y[dPhe(4-NHCONH2)]KTC[dY]-NH2; disulfide 2-7), the tissue uptake at 4 h [13] is reported as 36.4 ± 2.05 %ID/g, the tissue uptake at 24 h [13] is reported as 20.9 ± 3.02 %ID/g and the tissue uptake at 24 h (in vivo, Tu- (wtHEK293 tumor) uptake, In-111 radioligands, iv 20–25 pmol) is reported as 0.29 ± 0.01 %ID/g. For the same compound, the tissue uptake at 4 h [14] was 15.4 ± 0.58 %ID/g, the tissue uptake at 24 h [14] was 4.25 ± 0.77 %ID/g and the tissue uptake at 4 h [15] was 2.04 ± 0.25 %ID/g. For the same compound, the tissue uptake at 24 h [15] was 0.58 ± 0.06 %ID/g, the tissue uptake at 4 h [16] was 3.14 ± 0.48 %ID/g and the tissue uptake at 24 h [16] was 0.59 ± 0.12 %ID/g. It also gave a tissue uptake at 4 h [17] of 0.08 ± 0.01 %ID/g, a tissue uptake at 24 h [17] of 0.04 ± 0.02 %ID/g and a tissue uptake at 4 h [18] of 9.94 ± 0.79 %ID/g. For the same compound, the tissue uptake at 24 h [18] was 1.2 ± 0.14 %ID/g, the tissue uptake at 4 h [19] was 0.46 ± 0.05 %ID/g and the tissue uptake at 24 h [19] was 0.27 ± 0.03 %ID/g. It also gave a tissue uptake at 4 h [20] of 0.8 ± 0.17 %ID/g and a tissue uptake at 24 h [20] of 0.5 ± 0.09 %ID/g.
